In patent US20140199315A1 (Biogen, published 2014):

T1: mouse Sp35 protein (form in the assay not stated) (mouse, UniProt Q9D1T0 36-532, limits assumed)
T1 construct: also called mSp35; murine Sp35
T1 sequence (looked up): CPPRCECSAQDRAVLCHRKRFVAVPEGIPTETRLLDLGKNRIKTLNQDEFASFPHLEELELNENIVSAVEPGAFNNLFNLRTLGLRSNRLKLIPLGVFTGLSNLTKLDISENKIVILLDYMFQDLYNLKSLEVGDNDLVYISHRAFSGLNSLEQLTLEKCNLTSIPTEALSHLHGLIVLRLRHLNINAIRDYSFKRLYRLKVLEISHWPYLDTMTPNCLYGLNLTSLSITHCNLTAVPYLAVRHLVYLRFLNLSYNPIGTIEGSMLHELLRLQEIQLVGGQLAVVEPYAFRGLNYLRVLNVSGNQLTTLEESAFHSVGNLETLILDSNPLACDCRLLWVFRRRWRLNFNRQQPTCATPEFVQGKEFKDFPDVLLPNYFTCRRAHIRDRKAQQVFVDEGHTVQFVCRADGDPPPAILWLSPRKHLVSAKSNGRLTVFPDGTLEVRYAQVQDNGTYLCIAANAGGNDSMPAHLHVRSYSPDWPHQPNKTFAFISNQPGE

T2: Sp35 fragment amino acids 34-532 of SEQ ID NO:2 fused to hinge and Fc of IgG1 (human, UniProt Q96FE5 40-538)
T2 construct: the mature proteins should be the same; not shown: hinge and Fc regions of IgG1
T2 sequence: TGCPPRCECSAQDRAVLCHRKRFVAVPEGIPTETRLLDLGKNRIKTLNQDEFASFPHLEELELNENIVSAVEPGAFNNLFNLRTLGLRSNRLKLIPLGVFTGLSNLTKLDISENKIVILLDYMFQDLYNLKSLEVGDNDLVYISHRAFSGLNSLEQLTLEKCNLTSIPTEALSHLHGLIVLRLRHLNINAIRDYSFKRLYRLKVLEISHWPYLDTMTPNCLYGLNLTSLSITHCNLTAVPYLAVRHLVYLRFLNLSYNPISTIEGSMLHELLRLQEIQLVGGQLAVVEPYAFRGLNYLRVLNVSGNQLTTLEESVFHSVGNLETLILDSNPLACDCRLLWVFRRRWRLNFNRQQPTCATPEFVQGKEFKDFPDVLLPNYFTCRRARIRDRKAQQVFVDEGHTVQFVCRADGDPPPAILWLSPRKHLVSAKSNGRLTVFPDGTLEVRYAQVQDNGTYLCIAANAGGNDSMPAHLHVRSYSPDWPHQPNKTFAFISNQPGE

T3: Sp35-Fc fusion protein (human Sp35 residues 1-532 fused to hinge and Fc of human IgG1) (human, UniProt Q96FE5 40-538)
T3 construct: also called LINGO-1-Fc; not shown: hinge and Fc region of human IgG1
T3 sequence: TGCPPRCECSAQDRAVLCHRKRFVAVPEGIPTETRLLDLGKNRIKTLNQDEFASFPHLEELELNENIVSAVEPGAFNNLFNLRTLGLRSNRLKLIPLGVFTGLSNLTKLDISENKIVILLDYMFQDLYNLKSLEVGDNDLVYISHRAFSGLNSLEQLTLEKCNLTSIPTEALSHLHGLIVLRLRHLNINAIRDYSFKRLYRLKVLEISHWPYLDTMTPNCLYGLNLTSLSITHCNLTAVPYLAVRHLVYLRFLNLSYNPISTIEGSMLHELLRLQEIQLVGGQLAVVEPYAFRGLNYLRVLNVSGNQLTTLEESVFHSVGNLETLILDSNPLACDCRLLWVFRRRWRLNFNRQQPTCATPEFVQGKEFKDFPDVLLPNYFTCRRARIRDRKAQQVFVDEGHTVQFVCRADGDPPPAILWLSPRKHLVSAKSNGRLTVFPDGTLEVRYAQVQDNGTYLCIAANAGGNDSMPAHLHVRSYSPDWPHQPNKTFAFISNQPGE

T4: full-length human Sp35 with N-terminal hemagglutinin (HA) tag, from lysate of transfected COS-1 cells (human, UniProt Q96FE5 40-620)
T4 construct: also called huSp35 (immunoprecipitation); not shown: HA tag at the N-terminus
T4 sequence: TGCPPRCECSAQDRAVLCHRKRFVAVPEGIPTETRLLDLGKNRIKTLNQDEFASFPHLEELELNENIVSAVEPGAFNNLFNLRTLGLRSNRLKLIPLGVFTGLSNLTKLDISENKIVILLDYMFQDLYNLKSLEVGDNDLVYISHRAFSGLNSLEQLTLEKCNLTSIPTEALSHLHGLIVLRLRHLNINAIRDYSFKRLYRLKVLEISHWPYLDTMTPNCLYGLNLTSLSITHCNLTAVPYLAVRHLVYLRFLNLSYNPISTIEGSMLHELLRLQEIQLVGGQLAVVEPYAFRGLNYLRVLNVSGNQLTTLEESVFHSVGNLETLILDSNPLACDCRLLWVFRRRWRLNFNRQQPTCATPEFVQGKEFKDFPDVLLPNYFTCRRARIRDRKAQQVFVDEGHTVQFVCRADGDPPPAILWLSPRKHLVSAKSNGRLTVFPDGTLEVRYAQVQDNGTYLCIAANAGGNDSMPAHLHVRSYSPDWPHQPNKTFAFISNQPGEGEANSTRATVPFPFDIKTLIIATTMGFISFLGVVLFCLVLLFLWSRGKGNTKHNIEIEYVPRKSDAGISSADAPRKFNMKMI

T5: Sp35 polypeptide consisting of amino acids 34-534 of human Sp35 (human, UniProt Q96FE5 40-540)
T5 construct: No fusion partner stated
T5 sequence: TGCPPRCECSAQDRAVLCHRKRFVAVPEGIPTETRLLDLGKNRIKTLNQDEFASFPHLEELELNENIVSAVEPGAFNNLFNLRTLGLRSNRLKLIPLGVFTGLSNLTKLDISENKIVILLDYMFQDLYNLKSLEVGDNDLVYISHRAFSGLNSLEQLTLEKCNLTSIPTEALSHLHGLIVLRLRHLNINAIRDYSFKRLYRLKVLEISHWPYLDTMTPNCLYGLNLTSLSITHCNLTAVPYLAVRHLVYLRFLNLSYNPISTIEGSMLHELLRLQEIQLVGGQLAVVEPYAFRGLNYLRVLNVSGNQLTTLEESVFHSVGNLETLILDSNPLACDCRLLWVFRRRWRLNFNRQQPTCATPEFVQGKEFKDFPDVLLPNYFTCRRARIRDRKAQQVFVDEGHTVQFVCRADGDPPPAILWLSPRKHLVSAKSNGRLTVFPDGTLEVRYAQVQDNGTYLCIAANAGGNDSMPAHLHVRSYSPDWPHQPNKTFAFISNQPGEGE

T6: mouse Sp35 protein expressed on transfected cells (mouse, UniProt Q9D1T0 36-614)
T6 construct: whole, on cells; also called mSp35
T6 sequence (looked up): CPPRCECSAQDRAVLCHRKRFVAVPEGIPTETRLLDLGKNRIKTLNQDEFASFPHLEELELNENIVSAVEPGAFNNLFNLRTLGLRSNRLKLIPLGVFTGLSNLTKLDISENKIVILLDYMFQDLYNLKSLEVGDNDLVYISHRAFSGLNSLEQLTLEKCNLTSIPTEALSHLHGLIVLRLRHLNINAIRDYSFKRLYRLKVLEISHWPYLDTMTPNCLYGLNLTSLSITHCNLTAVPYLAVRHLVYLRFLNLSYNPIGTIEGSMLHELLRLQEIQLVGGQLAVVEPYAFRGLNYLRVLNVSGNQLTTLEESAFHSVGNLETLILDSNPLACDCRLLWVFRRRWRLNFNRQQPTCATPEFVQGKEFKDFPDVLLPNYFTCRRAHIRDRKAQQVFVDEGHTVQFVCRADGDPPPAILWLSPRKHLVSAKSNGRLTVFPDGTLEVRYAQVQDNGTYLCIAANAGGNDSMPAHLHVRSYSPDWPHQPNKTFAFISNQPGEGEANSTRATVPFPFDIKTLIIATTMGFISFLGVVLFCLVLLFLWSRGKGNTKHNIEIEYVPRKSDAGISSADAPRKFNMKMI

T7: full-length murine Sp35 with HA tag, from lysate of transfected cells (mouse, UniProt Q9D1T0 34-614, limits assumed)
T7 construct: also called mSp35 (immunoprecipitation); not shown: HA tag
T7 sequence (looked up): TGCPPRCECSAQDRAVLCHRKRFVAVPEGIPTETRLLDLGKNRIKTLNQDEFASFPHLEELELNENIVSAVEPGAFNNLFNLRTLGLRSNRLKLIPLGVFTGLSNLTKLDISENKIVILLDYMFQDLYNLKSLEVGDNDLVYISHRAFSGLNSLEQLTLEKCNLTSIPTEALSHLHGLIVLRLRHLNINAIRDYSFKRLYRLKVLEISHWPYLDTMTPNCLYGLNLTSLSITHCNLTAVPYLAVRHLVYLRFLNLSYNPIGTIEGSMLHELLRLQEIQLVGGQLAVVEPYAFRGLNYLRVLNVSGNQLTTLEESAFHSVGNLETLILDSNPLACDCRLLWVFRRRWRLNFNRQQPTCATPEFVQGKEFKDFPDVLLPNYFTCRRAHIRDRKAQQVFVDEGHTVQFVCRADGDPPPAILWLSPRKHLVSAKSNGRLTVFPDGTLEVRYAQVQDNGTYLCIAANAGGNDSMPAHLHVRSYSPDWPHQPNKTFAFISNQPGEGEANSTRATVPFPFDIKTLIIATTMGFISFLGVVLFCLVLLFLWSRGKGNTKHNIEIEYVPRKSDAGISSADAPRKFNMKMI


What was measured:
[1] = target: human Sp35 protein expressed on transfected cells (human) (UniProt Q96FE5); assay: FACS on live human LINGO-1 (Sp35) transfected 293 cells, PE-labelled secondary antibody alone (no primary antibody), FL2-H
[2] = target: T1, mouse Sp35 protein (form in the assay …); assay: method not stated (Example 5); KD determination (Example 5, method not stated), murine Sp35
[3] = target: T2, Sp35 fragment amino acids 34-532 of SEQ …; assay: ELISA
[4] = target: T3, Sp35-Fc fusion protein (human Sp35 …); assay: ELISA
[5] = target: T4, full-length human Sp35 with N-terminal …; assay: immunoprecipitation
Experimental: (§1) To perform the immunoprecipitation, COS-1 cells expressing Sp35, fused to a hemaglutinin (HA) tag on the N-terminus, were produced by transiently transfecting COS-1 cells with a DNA construct which expresses the full-length Sp35 protein with an HA tag. Cells were harvested 48 hr after transfection and were lysed in 1 ml lysis buffer (50 mM HEPES, pH 7.5, 150 mM NaCl, 1.5 mM MgCl₂, 1 mM EGTA, 1% Triton X-100 and 10% glycerol) for 30 min at 4° C. After centrifugation at 14,000×g for 15 min, the supernatants were incubated with ProteinA/G-Sepharose beads (Santa Cruz) at 4° C. for 1 hr, and then incubated at 4° C. for 1 hr with either the 1A7 or the 2F3 anti-Sp35 murine monoclonal antibodies. The beads were washed 3 times with lysis buffer, boiled in Laemmli sample buffer, subjected to 4-20% SDS-PAGE, and analyzed by Western blotting using an antibody which recognizes the HA tag. As shown on the SDS-PAGE gel, monoclonal antibodies 1A7 and 2F3, immunoprecipitated human and murine Sp35 (FIG. 1). […] Similarly, monoclonal antibodies 1G7, 2B10, 2F3, 3P4C2.2D2, 3P4C8.2G9, Li01, Li03, Li05, Li06, Li07, Li08, Li11 and Li12 immunoprecipitate human or mouse or human and mouse Sp35 (See Table 3B). Additionally, Li08 immunoprecipitates AP-Sp35 and monoclonal antibodies 1B6.4 and 3E3.1 immunoprecipitate endogenous Sp35 (See Table 3B).

[6] = target: T5, Sp35 polypeptide consisting of amino …; assay: similar experiments (ELISA)
[7] = target: T6, mouse Sp35 protein expressed on …; assay: FACS
Description: To further characterize the binding properties of hybridoma-derived anti-Sp35 mAbs 1A7 and 2F3 produced as described in Example 3, binding to both fixed and live COS-7 or 293 cells expressing mouse or human Sp35 was compared.

[8] = target: T7, full-length murine Sp35 with HA tag, …; assay: immunoprecipitation
Experimental: as §1

Row | Molecule | binding result [3] | binding result [4] | binding result [5] | binding result [6] | also measured
1 | 2nd Ab only (antibody) |  |  |  |  | (FL2-H) Geom. Mean [1]: 6.6; (FL2-H) Mean [1]: 8.78; (FL2-H) Median [1]: 6.76; fraction of cells in the marker gate (FL2-H histogram) [1]: 5.52
2 | 1A7 (antibody, V domains shown, murine hybridoma monoclonal antibody; also called monoclonal antibody 1A7; MAb 1A7) VH: QVQLVQSGPELKKPGETVKISCKASGYTFTNYGMNWVKQAPGKGLKWMGWINTDTGEPTYTEDFQGRFAFSLETSASTVYLQFNNLKNEDTATYFCAREGVHFDYWGQGTTVTVSS VL: QIVLTQSPAIMSASPGEKVTMTCSASSSVSYMHWYQQKSGTSPKRWIYDTSKLASGVPARFSGSGSGTSYSLTISSMEAEDAATYYCQQWSSNPFTFGSGTKLEIK |  |  |  |  | Kd [2]: 20 µM
3 | 3P1D10.2C3 (antibody, V domains shown, murine hybridoma monoclonal antibody) VH: QVQLQQSGAELARPGASVKLSCRASGYTFTSSWTQWVKQRPGQGLEWIGAIYPGDGDTRYTQKFKGKATLTADKSSSTAYMQLSSLASEDSAVYYCARHNSYGMDYWGQGTSVTVSS VL: DIVMTQSPSSLTVTAGEKVTMSCKSSQSLLNSGNQKNYLTWYQQKPGQPPKLLIYWASTRESGVPDRFTGSGSGTDFTLTINSVQAEDLAVYYCQNDYSYPLFTFGSGTKLEIR | binds | binds | binds | binds | 
4 | 3P1E11.3B7 (antibody, V domains shown) VH: QVQLQQSGAELARPGASVKLSCRASGYTFTSSWTQWVKQRPGQGLEWIGAIYPGDGDTRYTQKFKGKATLTADKSSSTAYMQLSSLASEDSAVYYCARHNSYGMDYWGQGTSVTVSS VL: DIVMTQSPSSLTVTAGEKVTMSCKSSQSLLNSGNQKSYLTWYQQKPGQPPKLLIYWASTRESGVPDRFTGSGSGTDFTLTINSVQAEDLAVYYCQNDYSYPLFTFGSGTKLEIR | binds | binds | binds | binds | 
5 | 2F3 (antibody, V domains shown, murine hybridoma monoclonal antibody; also called monoclonal antibody 2F3; MAb 2F3) VH: EVKLEESGGGLVQPGGSMKLSCAASGFTFSDAWLDWVRQSPEKGLEWVAEIRSKANNHATNYAESVKGRFTISRDDSKSSVYLQMNSLRAEDTGIYFCTPSFAYWGQGTTVTVSS VL: DIQMTQSPASLSASVGETVTITCRASGNIYNYLAWFQQKQGKSPQLLVYNAKTLPDGVPSRFSGSGSGTQYFLKINSLQPEDFGSYYCQHFWAIPYTFGGGTKLEIKR |  |  |  |  | binding result [7]: binds; binding result [8]: binds
